Laboratory results: patent publication US20210403506A1 (XDCEXPLORER SHANGHAI, published 2021)
Square brackets hold non-standard residues; d marks the D form. Ends that are not written are not given here. * marks the point of attachment. Diphenylacetyl = O=C(C(c1ccccc1)c1ccccc1)*; Tic = O=C(O)[C@@H]1Cc2ccccc2CN1

T1: human Chemokine like receptor 1 (human, UniProt Q99788 1-373)
T1 sequence (looked up): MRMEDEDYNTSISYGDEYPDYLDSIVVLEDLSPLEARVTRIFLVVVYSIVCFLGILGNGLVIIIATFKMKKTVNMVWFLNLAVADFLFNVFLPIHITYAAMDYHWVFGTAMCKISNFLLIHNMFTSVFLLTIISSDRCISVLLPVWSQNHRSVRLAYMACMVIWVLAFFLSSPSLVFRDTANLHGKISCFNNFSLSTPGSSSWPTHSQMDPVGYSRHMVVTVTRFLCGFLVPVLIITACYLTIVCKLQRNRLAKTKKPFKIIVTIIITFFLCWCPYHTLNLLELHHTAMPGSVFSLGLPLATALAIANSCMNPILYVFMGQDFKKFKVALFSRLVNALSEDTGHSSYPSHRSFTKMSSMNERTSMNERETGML


Target: T1, human Chemokine like receptor 1
Assay: cell-based or functional assay

Binder	EC50 (µM), activation of Tango CMKLR1-bla U2OS cells [µM]
Diphenylacetyl-[dY]FLP[dS]QF[dA][Tic]S-OH (SMILES CC(C)C[C@H](NC(=O)[C@H](Cc1ccccc1)NC(=O)[C@@H](Cc1ccc(O)cc1)NC(=O)C(c1ccccc1)c1ccccc1)C(=O)N1CCC[C@H]1C(=O)N[C@H](CO)C(=O)N[C@@H](CCC(N)=O)C(=O)N[C@@H](Cc1ccccc1)C(=O)N[C@H](C)C(=O)N1Cc2ccccc2C[C@H]1C(=O)N[C@@H](CO)C(=O)O) [YW-78]	0.026
{3,5‑dihydroxybenzoyl}-[dY]FLP[dS]QF[dA][Tic]S-OH [YW-79]	0.0047
{2,3‑dihydroxybenzoyl}-[dY]FLP[dS]QF[dA][Tic]S-OH [YW-127]	0.01
{2,6‑dihydroxybenzoyl}-[dY]FLP[dS]QF[dA][Tic]S-OH [YW-128]	0.02
{2,3,4‑trihydroxybenzoyl}-[dY]FLP[dS]QF[dA][Tic]S-OH [YW-129]	0.0091

Target: T1, human Chemokine like receptor 1
Assay: cell-based or functional assay
Remark: another data set of the same source

Binder	EC50 (µM), activation of Tango CMKLR1-bla U2OS cells [µM]
[dY]FLP[dS]QF[dA][Tic]S-OH [YW-3]	0.019
